Molecular target: fbx31_human FBXO31 (UniProt Q5XUX0)
Chain of UniProt Q5XUX0 (Q5XUX0 whole entry): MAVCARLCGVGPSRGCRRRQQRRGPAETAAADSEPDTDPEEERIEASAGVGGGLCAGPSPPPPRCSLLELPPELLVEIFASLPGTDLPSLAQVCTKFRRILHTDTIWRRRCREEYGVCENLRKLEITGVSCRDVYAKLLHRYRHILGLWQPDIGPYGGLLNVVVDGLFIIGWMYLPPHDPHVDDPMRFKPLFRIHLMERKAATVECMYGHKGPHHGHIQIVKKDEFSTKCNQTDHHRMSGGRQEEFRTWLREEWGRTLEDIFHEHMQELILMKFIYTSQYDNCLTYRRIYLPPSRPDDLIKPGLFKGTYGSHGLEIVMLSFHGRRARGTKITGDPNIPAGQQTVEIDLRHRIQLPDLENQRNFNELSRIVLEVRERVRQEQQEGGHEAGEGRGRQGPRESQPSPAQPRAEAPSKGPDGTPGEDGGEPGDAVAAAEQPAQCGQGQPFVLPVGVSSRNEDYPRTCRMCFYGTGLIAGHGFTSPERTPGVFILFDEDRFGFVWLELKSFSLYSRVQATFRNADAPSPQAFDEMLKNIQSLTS

effect of a mutation on the interaction: disrupting interaction
Substance: Serine-protein kinase ATM (Homo sapiens), Q13315 D2870A;N2875K
